B1: DEL K560–GFP (aa 341–370 of the neck coiled coil deleted) (domain or fragment, human, UniProt P33176 1-560, looked up)
chain: MADLAECNIKVMCRFRPLNESEVNRGDKYIAKFQGEDTVVIASKPYAFDRVFQSSTSQEQVYNDCAKKIVKDVLEGYNGTIFAYGQTSSGKTHTMEGKLHDPEGMGIIPRIVQDIFNYIYSMDENLEFHIKVSYFEIYLDKIRDLLDVSKTNLSVHEDKNRVPYVKGCTERFVCSPDEVMDTIDEGKSNRHVAVTNMNEHSSRSHSIFLINVKQENTQTEQKLSGKLYLVDLAGSEKVSKTGAEGAVLDEAKNINKSLSALGNVISALAEGSTYVPYRDSKMTRILQDSLGGNCRTTIVICCSPSSYNESETKSTLLFGQRAKTIKNTVCVNVELTAEQWGETVPIDEQFDKEKANLEAFTVDKDITLTNDKPATAIGVIGNFTDAERRKCEEEIAKLYKQLDDKDEEINQQSQLVEKLKTQMLDQEELLASTRRDQDNMQAELNRLQAENDASKEEVKEVLQALEELAVNYDQKSQEVEDKTKEYELLSDELNQKSATLASIDAELQKLKEMTNHQKKRAAEMMASLLK
B2: STABLE COIL K560–GFP (aa 343–370 replaced by four repeats of EIEALKA) (domain or fragment, human)
chain: MADLAECNIKVMCRFRPLNESEVNRGDKYIAKFQGEDTVVIASKPYAFDRVFQSSTSQEQVYNDCAKKIVKDVLEGYNGTIFAYGQTSSGKTHTMEGKLHDPEGMGIIPRIVQDIFNYIYSMDENLEFHIKVSYFEIYLDKIRDLLDVSKTNLSVHEDKNRVPYVKGCTERFVCSPDEVMDTIDEGKSNRHVAVTNMNEHSSRSHSIFLINVKQENTQTEQKLSGKLYLVDLAGSEKVSKTGAEGAVLDEAKNINKSLSALGNVISALAEGSTYVPYRDSKMTRILQDSLGGNCRTTIVICCSPSSYNESETKSTLLFGQRAKTIKNTVCVNVELTAEQWKKEIEALKAEIEALKAEIEALKAEIEALKAGETVPIDEQFDKEKANLEAFTVDKDITLTNDKPATAIGVIGNFTDAERRKCEEEIAKLYKQLDDKDEEINQQSQLVEKLKTQMLDQEELLASTRRDQDNMQAELNRLQAENDASKEEVKEVLQALEELAVNYDQKSQEVEDKTKEYELLSDELNQKSATLASIDAELQKLKEMTNHQKKRAAEMMASLLK

Molecular target: the molecule itself
Assay: single-spot fluorescence intensity

Row | Protein | stoichiometry N
1 | B1 | 2
2 | B2 | 2

Source: paper PMC2132664 (The Journal of Cell Biology, 1998)
